From publication PMC2800194
pKd: −log10 of the molar value.

Columns and labels:
Experiment in all cases: fluorescence anisotropy
Conditions in all cases: Anisotropy: 45 mM Tris pH 8.0, 1 mM CoCl2, 1 mM 2-oxoglutarate, 1 nM DNA, 25 °C, added salt not stated
[1] = system: AlkB T51A (Escherichia coli)
[2] = system: AlkB Y76A (Escherichia coli)
[3] = system: AlkB W69A (Escherichia coli)
[4] = system: AlkB R161A (Escherichia coli)
[5] = target: T1, AlkB D135A D135A (Escherichia coli) (UniProt P05050)
T1 sequence: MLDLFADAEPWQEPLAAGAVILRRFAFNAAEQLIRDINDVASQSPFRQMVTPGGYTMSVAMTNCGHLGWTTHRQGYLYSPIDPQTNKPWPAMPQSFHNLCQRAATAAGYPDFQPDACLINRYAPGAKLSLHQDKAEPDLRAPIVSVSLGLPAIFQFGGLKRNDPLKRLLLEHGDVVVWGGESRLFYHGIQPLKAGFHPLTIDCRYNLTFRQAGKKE

[6] = system: AlkB wt (Escherichia coli)
[7] = one 1-methyladenine (position not given)
[8] = 1,N6-ethenoadenine (position not given)

## 30-mer undamaged
[1]
  pKd: 4.29
[2]; 1 mM Co2+, 1 mM 2-OG
  pKd: 4.42
[3]
  pKd: 4.46
[4]
  pKd: 4.70
[5]
  pKd: 5.31
[6]
  pKd: 4.80

## 30-mer 1-meA
[1]; [7]
  pKd: 5.82
[2]; [7]
  pKd: 4.96
[3]; [7]
  pKd: 5.28
[4]; [7]
  pKd: 5.02
[5]; [7]
  pKd: 6.50
[6]; [7]
  pKd: 5.70

## 30-mer εA
[1]; [8]
  pKd: 5.57
[2]; [8]
  pKd: 4.66
[3]; [8]
  pKd: 5.11
[4]; [8]
  pKd: 5.10
[5]; [8]
  pKd: 6.90
[6]; [8]
  pKd: 5.92
